Measurements: PMC9826845, “Characterization of the Escherichia coli XPD/Rad3 iron-sulfur helicase YoaA in complex with the DNA polymerase III clamp loader subunit chi (χ)”

B1: B3 forked duplex (S4 + S5) (dsDNA)
DNA 1: TTTTTTTTTTTTTTTTTTTTTTTTTTTTTTTTTTTATAAAAGGGACATTCTGGCC
DNA 2: GGCCAGAATGTCCCTTTTATTACTGGTCGT
modifications: fluorescein at T15 of strand 2 (printed F, written as T)
B2: B2 5' overhang duplex (S18 + S5) (dsDNA)
DNA 1: B1 DNA 1
DNA 2: GGCCAGAATGTCCCTTTTAT
modifications: fluorescein at T15 of strand 2 (printed F, written as T), 6 nt from junction

Target: YoaA (6xHis);chi (DNA polymerase III clamp loader subunit) (Escherichia coli;Escherichia coli, UniProt P76257;P28905 1-636;1-147, |)
Sequence (P76257 whole entry, chain 1 of 2): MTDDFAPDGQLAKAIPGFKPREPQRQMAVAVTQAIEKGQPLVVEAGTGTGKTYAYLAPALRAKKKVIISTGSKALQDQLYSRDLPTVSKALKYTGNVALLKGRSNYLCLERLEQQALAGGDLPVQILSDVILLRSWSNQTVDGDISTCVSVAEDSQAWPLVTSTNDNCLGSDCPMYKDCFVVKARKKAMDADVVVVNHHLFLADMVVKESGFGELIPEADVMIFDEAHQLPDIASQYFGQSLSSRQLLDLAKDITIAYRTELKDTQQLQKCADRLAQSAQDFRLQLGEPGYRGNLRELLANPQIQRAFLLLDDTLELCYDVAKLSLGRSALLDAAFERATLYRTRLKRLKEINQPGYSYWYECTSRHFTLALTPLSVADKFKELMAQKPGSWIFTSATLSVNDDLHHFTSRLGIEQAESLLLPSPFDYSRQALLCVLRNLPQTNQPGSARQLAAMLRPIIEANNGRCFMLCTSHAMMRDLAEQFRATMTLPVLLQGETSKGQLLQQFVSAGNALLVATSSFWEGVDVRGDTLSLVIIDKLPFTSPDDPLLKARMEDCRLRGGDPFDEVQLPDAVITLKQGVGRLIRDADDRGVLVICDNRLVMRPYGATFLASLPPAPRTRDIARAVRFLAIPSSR
Sequence (P28905 whole entry, chain 2 of 2): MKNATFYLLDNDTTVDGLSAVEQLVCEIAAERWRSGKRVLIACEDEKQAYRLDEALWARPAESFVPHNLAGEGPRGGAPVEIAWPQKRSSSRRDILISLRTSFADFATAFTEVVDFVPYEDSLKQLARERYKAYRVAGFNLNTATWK
Test: fluorescein quenching titration; 0.5 mM ATPgS; rough estimate, no saturation; assay buffer B (composition not in the material) with 0.5 mM ATPgS, 50 nM DNA, YoaA-chi 0.1 nM-2 uM (Kd titration) or 1 uM; temperature and pH not given
Conditions: protein: recombinant;recombinant, 6xHis (His-YoaA);, copies: 1;1, label: fluorescein, 20 bp, other end blunt

Binder | Kd (fork: 35 nt 5' overhang on strand 1, 10 nt 3' overhang on strand 2) [nM] | Kd (35 nt 5' overhang on strand 1) [nM]
B1 | ~328 | –
B2 | – | ~350
